This is an account of results in the supplement of paper PMC9170038.

The data set has as its system MS2 coat protein. Put plainly: apparent KD of MS2 coat protein; designed switch direction (-1 OFF switch, 1 ON switch): -1; higher = weaker reporter binding. In short, it runs like this: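 Designed RNA switches sharing common flanks were transcribed on Illumina chips by stalled E. coli RNA polymerase. They were titrated with SNAP-549-labelled MS2 coat protein, from 0.7 or 1.5 nM doubling to 3 µM, in Tris-HCl pH 7.5 buffer with KCl, MgCl2, BSA, DTT, tRNA and Tween-20. Titrations ran without input, with 200 uM small-molecule ligand, or with an oligonucleotide input. The apparent KD of each design is the median over its clusters, after curve-fitting of normalised cluster fluorescence.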

Setting [1] is: Eterna round: R95, input ligand: FMN 200 uM.
[2] abbreviates: Eterna round: R95, input ligand: microRNA oligo, concentration not stated.
Where [3] appears, read: Eterna round: R95, input ligand: none.
Where [4] appears, read: input ligand: microRNA oligo, concentration not stated.

With “AAACCGCAAGGAUAUACUUGCGGUGGUGUUCGAAACUUUCUACUUGAGGAUCACCCAAGUAGAAGGUGCGGUAA [jl-ex2.4.71 ViennaUCT mod] (Eterna round: R97, puzzle: Exclusion 2)”, the “apparent KD of MS2 coat protein” value (input ligand: FMN 200 uM) came out at 0.0132 µM and the “apparent KD of MS2 coat protein” value (input ligand: none) was 0.0129 µM.
Regarding “AAACCUGCCCAUGACCGCAAGCUUUUCGCUUGUCUUACCACAUGAGGAUCACCCAUGUGACAUGGGCUCCUUAUAAA [Usorle] (puzzle: Sensor v3, turn-off variant 2)”, the “apparent KD of MS2 coat protein” value is, setting by setting: under setting [1], 0.014 µM; under setting [2], 0.0118 µM; under setting [3], 0.0114 µM.
As for “AAACGGCAGGGAGGAUAUGCUUACCUGGGUCGUCUUCAGACAUGAGGAUCACCCAUGUAGUCGACGCAGAAGGCCCUCAAAGCC [JL ViennaUCT Ontiis mod 3] (Eterna round: R96, puzzle: Exclusion NG 2)”, the “apparent KD of MS2 coat protein” value by setting is: (input ligand: FMN 200 uM) 0.413 µM; under setting [4], 0.0387 µM; (input ligand: none) 0.0511 µM.
Turning to “AAACGGGUGUCCUCGUUUUCAACAUGAGGAUCACCCAUGUUCGAGGAUAUCCAAUAAGCUCUUCAGGAGAAGGCGAACAUAAAA [Anenence] (Eterna round: R96, puzzle: Exclusion NG 3)”, the “apparent KD of MS2 coat protein” value is, setting by setting: (input ligand: FMN 200 uM) 0.0201 µM; under setting [4], 0.0133 µM; (input ligand: none) 0.0157 µM.
For “AAACUGUGAGGAUAUGGUGAGUAGUGCCUGAGCGCUGCUCACCAGAAGGCACAUGAGGAUCACCCAUGUAUAAA [Mat - Exclusion 4 - Mod of JL - D6] (puzzle: Exclusion 4)”, the “apparent KD of MS2 coat protein” value under setting [2] turned out to be 0.0242 µM.
Turning to “AAAGAACAUGAGGAUCACCCAUGUAAGGAUAUCCAAAAGAAGGAAAGAAAGAAAAGAAGGAGAAGGUACAAGAA [JR_Exclu1_Sub041] (puzzle: Exclusion 1)”, the “apparent KD of MS2 coat protein” value runs as follows: under setting [1], 0.0335 µM; under setting [2], 0.0607 µM; under setting [3], 0.0845 µM.
Regarding “AAAGCCAAGCGAGGAUAUGCGAUAGUUGAUCUUCGUGAGGACAUGAGGAUCACCCAUGUGCUGCAGCAGAAGGCGCAGGUAAAG [Anramaqu] (Eterna round: R96, puzzle: Exclusion NG 2)”, the “apparent KD of MS2 coat protein” value is 0.754 µM (input ligand: FMN 200 uM), 0.14 µM under setting [4] and 0.318 µM (input ligand: none).
As for “AAAGCGUGAGGAUAUGAGGCGCCGGGCCGGUUGGUGCGGAUUCAGAAGGCACAUGAGGAUCACCCAUGUAGGAA [Excls4-III] (puzzle: Exclusion 4)”, the “apparent KD of MS2 coat protein” value under setting [2] was 0.0229 µM.
With “AAAGGAUGCCUAGGAUAUUGACUAAGAAAGGAUUAAGAAGGAGGAAAUAUAUGAGGGAUCCACAUGAGGAUCACCCAUGUACAC [Xesousbege] (Eterna round: R96, puzzle: Exclusion NG 1)”, the “apparent KD of MS2 coat protein” value runs as follows: (input ligand: FMN 200 uM) 0.769 µM; under setting [4], 0.315 µM; (input ligand: none) 0.607 µM.
As for “AAAUAAAGCCUAGGAUAUCCGGACGAUAACCCAGGAGAAGGAGGAUGUCGAAGAAGACAUGAGGAUCACCCAUGUGCGUCCUCU [Ancegege] (Eterna round: R96, puzzle: Exclusion NG 1)”, the “apparent KD of MS2 coat protein” value (input ligand: FMN 200 uM) is 0.0103 µM, the “apparent KD of MS2 coat protein” value under setting [4] stood at 0.0106 µM and the “apparent KD of MS2 coat protein” value (input ligand: none) is 0.0154 µM.
For the sequence “AAAUACAAAGGAUAUACAUGAGGAUCACCCAUGUAGGUCAAUGCGCGGGCGAUGCCACGUAGAAGGUUGAAUAC [EX3 C.12] (Eterna round: R97, puzzle: Exclusion 3)”, the “apparent KD of MS2 coat protein” value (input ligand: FMN 200 uM) is 0.0275 µM and the “apparent KD of MS2 coat protein” value (input ligand: none) is 0.0241 µM.
As for “AAAUACAAGCAAAGAUCCUACAUGAGGAUCACCCAUGUGUUCGUCUUAUAAAGUACUAUCACGAAAGUGAUAGUACA [Sensor 3, v1 - 18] (puzzle: Sensor v3, turn-off variant 1)”, the “apparent KD of MS2 coat protein” value under setting [1] was 0.309 µM, the “apparent KD of MS2 coat protein” value under setting [2] came out at 1.1 µM and the “apparent KD of MS2 coat protein” value under setting [3] is 0.198 µM.
With “AAAUAGCAAGUGUGAUCCUACAUGAGGAUCACCCAUGUGUUCGUCUUAUUUGAAGACAACACAAAAGUGUUGUCUUA [Omei Mir OFFv1 B2] (Eterna round: R97, puzzle: Sensor, turn-off variant 1)”, the “apparent KD of MS2 coat protein” value is, setting by setting: (input ligand: FMN 200 uM) 0.0329 µM; (input ligand: none) 0.0246 µM.
Regarding “AAAUAUAAGCAAAGAUCCUACAUGAGGAUCACCCAUGUGCUCGUCUUAUAAAGUACUAUCACGAAAGUGAUAGUACA [Sensor 3, v1 - 19] (puzzle: Sensor v3, turn-off variant 1)”, the “apparent KD of MS2 coat protein” value under setting [1] was 0.117 µM, the “apparent KD of MS2 coat protein” value under setting [2] came to 0.049 µM and the “apparent KD of MS2 coat protein” value under setting [3] turned out to be 0.215 µM.
For the sequence “AAAUCCGCUGAGGAUAUCAUGACUGAGAGGUCAUGAGAAGGCGGUACAUGAGGAUCACCCAUGUCUAUGGGCAA [Ex-6 Malc#28] (puzzle: Exclusion 6)”, the “apparent KD of MS2 coat protein” value under setting [2] came to 0.386 µM.
As for “AAAUUAACUUAGGAUAUCGGCUGAAACAGCGUACGAGAAGGAAGUACAUGAGGAUCACCCAUGUGUCCCGUGCU [Teentibi] (Eterna round: R97, puzzle: Exclusion 6)”, the “apparent KD of MS2 coat protein” value was found to be 0.0686 µM (input ligand: FMN 200 uM) and 0.0381 µM (input ligand: none).
